According to paper PMC10746174:

Biological target: heme
Experiment: UV-vis spectroscopy, as-purified Soret peak (412 nm)
Settings: 50 µg of purified protein, as-purified (black trace); parent: est. 0.32; read off a plot

| response [Abs.] | Substance |
| --- | --- |
| 0.2 | CcmF:6×His wild type (from UniProt P33927) W229A |
| 0.18 | CcmF:6×His wild type (from UniProt P33927) Y231A |
